Experimental data from the supplement of paper PMC6379048.

Columns and labels:
Assay in all cases: Kd (EC50 corrected by depletion factor)
PATL1 = target: T1, PATL1 (UniProt Q86TB9)
T1 sequence: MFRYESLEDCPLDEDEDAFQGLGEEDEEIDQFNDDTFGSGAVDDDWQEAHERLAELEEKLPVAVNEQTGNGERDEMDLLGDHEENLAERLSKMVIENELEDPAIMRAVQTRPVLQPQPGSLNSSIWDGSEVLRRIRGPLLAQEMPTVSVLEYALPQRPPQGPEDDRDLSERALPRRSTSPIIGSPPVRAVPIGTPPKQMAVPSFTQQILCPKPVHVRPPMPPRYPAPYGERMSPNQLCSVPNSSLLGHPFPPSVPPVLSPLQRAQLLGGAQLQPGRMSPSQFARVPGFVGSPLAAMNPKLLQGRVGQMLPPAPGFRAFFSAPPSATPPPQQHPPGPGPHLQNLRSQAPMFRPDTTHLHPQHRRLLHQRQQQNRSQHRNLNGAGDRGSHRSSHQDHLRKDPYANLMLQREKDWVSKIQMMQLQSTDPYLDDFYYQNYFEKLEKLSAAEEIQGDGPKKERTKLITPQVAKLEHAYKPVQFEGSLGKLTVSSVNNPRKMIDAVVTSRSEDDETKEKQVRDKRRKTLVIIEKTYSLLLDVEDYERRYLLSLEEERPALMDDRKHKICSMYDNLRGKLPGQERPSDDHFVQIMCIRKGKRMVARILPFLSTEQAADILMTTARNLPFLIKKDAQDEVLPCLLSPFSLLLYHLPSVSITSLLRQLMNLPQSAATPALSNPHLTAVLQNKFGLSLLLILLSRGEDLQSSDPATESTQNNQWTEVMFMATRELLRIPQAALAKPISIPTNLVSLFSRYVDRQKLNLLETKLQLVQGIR
Outline: (§1)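 Kd was calculated as EC50, taken from a four-parameter log-logistic fit, multiplied by a protein-dependent depletion factor. The assay used HEK293-FT lysate (2.5 mg protein/well) pre-incubated for 1 h at 4°C with free RNA oligos (0 nM to 30 μM), then incubated for 30 min at 4°C with the matching oligos bound through a 5′-amino-C6 linker to NHS-Sepharose beads. Bound proteins were measured by label-free LC-MS/MS and normalised to the control.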

ANGEL2 = target: T2, ANGEL2 (UniProt Q5VTE6)
T2 sequence: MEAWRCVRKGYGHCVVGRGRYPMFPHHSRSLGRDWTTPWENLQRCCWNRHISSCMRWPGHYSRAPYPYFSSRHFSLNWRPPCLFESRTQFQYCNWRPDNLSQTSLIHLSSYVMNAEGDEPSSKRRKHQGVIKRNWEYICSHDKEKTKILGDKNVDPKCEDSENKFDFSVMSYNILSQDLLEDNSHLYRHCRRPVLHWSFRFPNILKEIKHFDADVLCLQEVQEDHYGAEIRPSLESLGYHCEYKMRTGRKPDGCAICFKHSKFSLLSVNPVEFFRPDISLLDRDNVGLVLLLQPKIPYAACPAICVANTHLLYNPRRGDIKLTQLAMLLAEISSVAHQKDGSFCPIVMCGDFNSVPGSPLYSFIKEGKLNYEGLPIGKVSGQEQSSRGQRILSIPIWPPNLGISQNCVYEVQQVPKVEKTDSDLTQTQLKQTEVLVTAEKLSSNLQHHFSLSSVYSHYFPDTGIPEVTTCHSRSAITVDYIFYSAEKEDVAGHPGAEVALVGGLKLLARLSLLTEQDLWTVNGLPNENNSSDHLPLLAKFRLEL
Outline: as §1

RPS28 = RPS28 (UniProt P62857)
Outline: as §1

SRSF7 = target: T3, SRSF7 (UniProt Q16629)
T3 sequence: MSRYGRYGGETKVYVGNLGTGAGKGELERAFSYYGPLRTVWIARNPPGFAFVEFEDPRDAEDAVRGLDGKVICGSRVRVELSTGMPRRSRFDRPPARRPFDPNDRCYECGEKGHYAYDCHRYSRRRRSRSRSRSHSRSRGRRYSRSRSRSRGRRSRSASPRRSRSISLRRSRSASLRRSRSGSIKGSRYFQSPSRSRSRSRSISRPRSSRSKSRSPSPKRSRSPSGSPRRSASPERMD
Outline: as §1

RBM14 = target: T4, RBM14 (UniProt Q96PK6)
T4 sequence: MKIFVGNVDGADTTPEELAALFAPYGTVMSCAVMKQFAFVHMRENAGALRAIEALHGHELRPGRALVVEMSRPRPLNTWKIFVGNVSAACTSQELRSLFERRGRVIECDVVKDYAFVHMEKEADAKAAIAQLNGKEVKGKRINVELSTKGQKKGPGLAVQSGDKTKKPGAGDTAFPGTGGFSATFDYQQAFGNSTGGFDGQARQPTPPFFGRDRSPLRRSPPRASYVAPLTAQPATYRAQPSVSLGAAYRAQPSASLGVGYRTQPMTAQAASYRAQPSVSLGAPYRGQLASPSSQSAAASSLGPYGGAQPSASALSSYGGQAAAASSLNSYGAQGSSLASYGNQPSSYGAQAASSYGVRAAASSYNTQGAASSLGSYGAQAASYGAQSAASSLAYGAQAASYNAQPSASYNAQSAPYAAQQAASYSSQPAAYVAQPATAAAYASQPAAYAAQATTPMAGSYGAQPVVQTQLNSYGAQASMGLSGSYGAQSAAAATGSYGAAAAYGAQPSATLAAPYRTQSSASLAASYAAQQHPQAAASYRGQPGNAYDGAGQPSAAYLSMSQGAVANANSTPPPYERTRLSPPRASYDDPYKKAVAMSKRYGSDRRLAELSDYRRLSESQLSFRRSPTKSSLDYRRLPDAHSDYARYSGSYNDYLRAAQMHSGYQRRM
Outline: as §1

U2AF1 = target: T5, U2AF1 (UniProt Q01081)
T5 sequence: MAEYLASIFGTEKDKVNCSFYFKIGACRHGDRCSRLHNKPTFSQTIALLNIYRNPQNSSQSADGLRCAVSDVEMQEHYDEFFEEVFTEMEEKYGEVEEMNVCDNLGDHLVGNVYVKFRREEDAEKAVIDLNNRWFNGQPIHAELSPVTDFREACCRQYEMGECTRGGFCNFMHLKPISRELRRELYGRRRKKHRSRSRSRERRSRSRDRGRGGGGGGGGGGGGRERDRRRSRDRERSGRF
Outline: as §1

Question: How did the Kd (PATL1) turn out when UAUUUAU was run?
Answer: 258 nM

Question: How did the Kd (ANGEL2) turn out when CUGUCCU was run?
Answer: 144 nM

Question: And the Kd (RPS28)?
Answer: 115 nM

Question: What about the Kd (SRSF7) of the same sequence?
Answer: 1000 nM

Question: How did the Kd (RBM14) turn out when AAUAAA was run?
Answer: 600 nM

Question: And the Kd (U2AF1)?
Answer: 202 nM
